# Where “and” joins values, the source holds several entries; their conditions need not be identical. Equal entries are not always repeated.
# B1: H. armigera reductase: Helicoverpa armigera alcohol-forming fatty acyl-CoA reductase, SEQ ID NO: 41 (protein)
# chain: MVVLTSKETKPSVAEFYAGKSVFITGGTGFLGKVFIEKLLYSCPDIENIYMLIREKKGLSVSERIKQFLDDPLFTRLKDKRPADLEKIVLIPGDITAPDLGINSENEKMLIEKVSVIIHSAATVKFNEPLPTAWKINVEGTRMMLALSRRMKRIEVFIHISTAYTNTNREVVDEILYPAPADIDQVHQYVKDGISEEDTEKILNGRPNTYTFTKALTEHLVAENQAYVPTIIVRPSVVAAIKDEPLKGWLGNWFGATGLTVFTAKGLNRVIYGHSSYIVDLIPVDYVANLVIAAGAKSSKSTELKVYNCCSSSCNPVTIGTLMSMFADDAIKQKSYAMPLPGWYIFTKYKWLVLLLTFLFQVIPAYVTDLSRHLIGKSPRYIKLQSLVNQTRSSIDFFTNHSWVMKADRVRELYASLSPADKYLFPCDPTDINWTHYIQDYCWGVRHFLEKKSYE
# modifications: Helicoverpa armigera alcohol forming reductase (HaFAR)
# B2: S. cerevisiae OLE1: native S. cerevisiae palmitoyl:CoA/stearoyl:CoA (Z)-9-desaturase, positive control (protein, UniProt P21147 1-510, looked up)
# Acyl-CoA desaturase 1: MPTSGTTIELIDDQFPKDDSASSGIVDEVDLTEANILATGLNKKAPRIVNGFGSLMGSKEMVSVEFDKKGNEKKSNLDRLLEKDNQEKEEAKTKIHISEQPWTLNNWHQHLNWLNMVLVCGMPMIGWYFALSGKVPLHLNVFLFSVFYYAVGGVSITAGYHRLWSHRSYSAHWPLRLFYAIFGCASVEGSAKWWGHSHRIHHRYTDTLRDPYDARRGLWYSHMGWMLLKPNPKYKARADITDMTDDWTIRFQHRHYILLMLLTAFVIPTLICGYFFNDYMGGLIYAGFIRVFVIQQATFCINSLAHYIGTQPFDDRRTPRDNWITAIVTFGEGYHNFHHEFPTDYRNAIKWYQYDPTKVIIYLTSLVGLAYDLKKFSQNAIEEALIQQEQKKINKKKAKINWGPVLTDLPMWDKQTFLAKSKENKGLVIISGIVHDVSGYISEHPGGETLIKTALGKDATKAFSGGVYRHSNAAQNVLADMRVAVIKESKNSAIRMASKRGEIYETGKFF
# Key:
# Assay type in all cases: cell-based, Saccharomyces cerevisiae
# Z11-hexadecenoic acid = assay: in vivo bioconversion of Z11-hexadecenoic acid into Z11-hexadecenol by alcohol-forming reductases in S. cerevisiae
# From the text: S. cerevisiae W303 (MATA ura3-1 trp1-1 leu2-3_112 his3-11_15 ade2-1 can1-100) and BY4742 (MATa POX1::kanMX his3Δ1 leu2Δ0 lys2Δ0 ura3Δ0) were used as expression hosts. DNA sequences which encode fatty alcohol reductase variants were redesigned to optimize expression in S. cerevisiae (SEQ ID NOs: 1-3). Generated synthons (Genscript) were cloned into pESC-URA vector using BamHI-XhoI sites to facilitate protein expression utilizing the Gal1 promoter. The resulting plasmid constructs were used to transform W303, and positive transformants were selected on CM agar medium (with 2% glucose, and lacking uracil) (Teknova). To assess functional expression, two positive transformation clones that have been patched on CM agar medium (with 2% glucose, and lacking uracil) were used to seed CM liquid medium using a 24 deep-well plate format. […]
# The lipids were extracted according to a modified procedure of Hagström et al. (2012) (Hagström, A. K., Liénard, M. A., Groot, A. T., Hedenström, E. & Löfstedt, C. Semi-Selective Fatty Acyl Reductases from Four Heliothine Moths Influence the Specific Pheromone Composition. PLoS One 7: e37230 (2012)). […] The trimethylsilyl-esters, which were generated by this method were subsequently analyzed by GC-MS analysis. […] A Z11-hexadecenol calibration curve shown in FIG. 9 was used to quantify the Z11-hexadecenol produced from yeasts. […]
# S. cerevisiae ΔOLE1 = assay: ΔOLE1 growth complementation assay without UFA
# From the text: S. cerevisiae ΔOLE1 (MATA OLE1::LEU2 ura3-52 his4) was used as an expression host. A synthetic expression cassette termed pOLE1 (FIG. 10, SEQ ID NO: 4) which comprises the OLE1 promoter region (SEQ ID NOs: 5 and 6), nucleotides encoding for 27 N-terminal amino acids of the OLE1 leader sequence (SEQ ID NO: 7), and a VPS13 terminator sequence (SEQ ID NO: 8) was created, and cloned into pESC-URA vector in between SacI and EcoRI sites. To test the functionality of the pOLE1 cassette, Dasher GFP synthon was inserted in between SpeI and NotI sites to create pOLE1-GFP plasmid. Competent ΔOLE1 was transformed with pOLE1-GFP, and plated on CM-Ura glucose agar plate (Teknova) containing UFA (20 mm CM-URA glucose agar plate was coated with 100 μL CM-Ura glucose medium containing 1% tergitol, and 3 μL palmitoleic acid). […] Validation of ΔOLE1 complementation was performed by restoring OLE1 activity. Specifically, native S. cerevisiae OLE1 synthon was inserted into pOLE1 cassette devoid of the leader sequence to create pOLE1-OLE1 plasmid. After transformation of ΔOLE1, and selection on CM-Ura glucose agar containing UFA, single colonies were patched onto YPD and CM-Ura glucose without UFA. After incubation at 30° C. for 5 days, growth was observed (FIG. 11A-FIG. 11E). As expected, Dasher GFP expression could not complement ΔOLE1 growth without UFA (FIG. 11A-FIG. 11E). DNA sequences which encode for desaturase variants were synthesized (to include nucleotide changes which remove restriction sites used for cloning purposes), and cloned into pOLE1 using SpeI-NotI sites (Genscript, SEQ ID NOs: 9-13). Complementation assay of ΔOLE1 with insect desaturases were performed in the same way as with OLE1 desaturase.
# palmitic acid = assay: in vivo bioconversion of palmitic acid into (Z)-11-hexadecenoic acid in S. cerevisiae ΔOLE1; conditions: ΔOLE1, ~96 h in minimal medium containing palmitic acid
# Experimental: To assess functional expression, two positive transformation clones that had been patched on CM-Ura glucose agar medium containing UFA were inoculated in 1.5 mL CM-Ura glucose liquid medium containing palmitic acid (in ethanol) at a final concentration of 300 mg/L, and with 6.7 g/L of YNB. For (z)-11-hexadecenoic isomer confirmation, a 20 mL culture was generated. Bioconversion assay proceeded for 96 h at 28° C. prior to GC-MS analysis.
# Total lipid composition as well as the (Z)-11-hexadecenoic acid quantification was based on modified procedures by Moss et al. (1982) (Moss, C. W., Shinoda, T. & Samuels, J. W. Determination of cellular fatty acid compositions of various yeasts by gas-liquid chromatography. J. Clin. Microbiol. 16: 1073-1079 (1982)) and Yousuf et al (2010) (Yousuf, A., Sannino, F., Addorisio, V. & Pirozzi, D. Microbial Conversion of Olive Oil Mill Wastewaters into Lipids Suitable for Biodiesel Production. J. Agric. Food Chem. 58: 8630-8635 (2010)). The pelleted cells (in 1.5 mL plastic tubes), usually about 10 mg to 80 mg, were resuspended in methanol containing 5% (w/w) of sodium hydroxide. […]
# The regioselectivity of biologically produced (Z)-11-hexadecenoic acid was determined by comparing the fragmentation patterns of the dimethyl disulfide (DMDS) derivative with the DMDS derivative of an authentic standard. […]
Molecule,activity toward Z11-hexadecenoic acid among the reductases tested (Z11-hexadecenoic acid; S. cerevisiae),"Z11-hexadecenol production (Z11-hexadecenoic acid; W303A, within 48 h of protein induction, 300 mg/L Z11-hexadecenoic acid)",rescue of ΔOLE1 growth without UFA (S. cerevisiae ΔOLE1; minimal medium (CM-Ura glucose) agar plate),rescue of ΔOLE1 growth without UFA (S. cerevisiae ΔOLE1; rich medium (YPD) agar plate),(Z)-9-hexadecenoic acid in C16-fatty acid (palmitic acid),hexadecanoic acid in C16-fatty acid (palmitic acid)
B1,most active,≤ 70 μM and ≤ 16 mg/L,,,,
B2,,,rescued ΔOLE1 growth without exogenous UFA,highest level of growth,~31.4%,approximately 68.6%
